The values that follow come from paper PMC7101349, “Synthetic antibodies against BRIL as universal fiducial marks for single−particle cryoEM structure determination of membrane proteins” (Nature Communications, 2020).

Where a chain is given by its changes, count along the chain named.

The term Kd denotes the concentration at which binding is half-saturated. Read a low Kd as higher affinity. Broadly, the stoichiometry N is the number of molecules, sites or subunits per partner or assembly.

Holding throughout (settings): both partners purified
For one test, the target named is T1, His10-BRIL (Escherichia coli (engineered cytochrome …, stabilised)).
T1 construct: BRIL, an engineered variant of apocytochrome b562; Immobilised by its N-terminal His10 tag for SPR; also called wt BRIL; source: E. coli BL21 (DE3), purified (Ni-NTA); not shown: His10, N-terminal, kept
Nature of the test: SPR; His10-BRIL immobilised on a nitrilotriacetic acid sensor chip via the N-terminal His10 tag; 2-fold dilution series of sABs at 30 μl/min; 20 °C; BIACORE 3000; 1:1 interaction model.

Test [1] addresses T2, BRIL-3turn-KcsA (construct 8) (Escherichia coli (engineered cytochrome …, chimera)).
T2 construct: BRIL, an engineered variant of apocytochrome b562, in place of the N-terminal helix of KcsA; helical linker, 3 turn; potassium channel KcsA; the N-terminal helix (residues 1-23) replaced by BRIL and linker; source: E. coli BL21(DE3)plysS, purified (Talon, SEC) in DDM
As to the kind of experiment: SEC; analytical SEC (aSEC): BRIL-fused targets (in detergent, nanodiscs or amphipols) mixed with 1.2–1.5-fold molar excess of sAB, 30 min on ice; Superdex 200 Increase or Superose 6 Increase; retention volume and gel electrophoresis. Background: In gel filtration, larger molecules generally elute earlier.

Test [2] concerns the target T3, BRIL-AAA-KcsA (construct 2) (Escherichia coli (engineered cytochrome …, chimera)).
T3 construct: BRIL, an engineered variant of apocytochrome b562, in place of the N-terminal helix of KcsA; helical linker; potassium channel KcsA; the N-terminal helix (residues 1-23) replaced by BRIL and linker; also called three residues (-AAA-) linker construct; source: E. coli BL21(DE3)plysS, purified (Talon, SEC) in DDM
Described as above.

The target in test [3] is T4, BRIL-AARAAA-KcsA (construct 5) (Escherichia coli (engineered cytochrome …, chimera)).
T4 construct: BRIL, an engineered variant of apocytochrome b562, in place of the N-terminal helix of KcsA; helical linker; potassium channel KcsA; the N-terminal helix (residues 1-23) replaced by BRIL and linker; also called six residues (-AARAAA-) linker construct; source: E. coli BL21(DE3)plysS, purified (Talon, SEC) in DDM
Described as above.

Test [4] has as its target T5, BRIL-2turn-KcsA (construct 7) (Escherichia coli (engineered cytochrome …, chimera)).
T5 construct: BRIL, an engineered variant of apocytochrome b562, in place of the N-terminal helix of KcsA; helical linker, 2 turn; potassium channel KcsA; the N-terminal helix (residues 1-23) replaced by BRIL and linker; also called construct with 2-turn linker; source: E. coli BL21(DE3)plysS, purified (Talon, SEC) in DDM
The description is as above.

The target of test [5] is T6, BRIL-AAAA-KcsA (construct 3, 1 turn) (Escherichia coli (engineered cytochrome …, chimera)).
T6 construct: BRIL, an engineered variant of apocytochrome b562, in place of the N-terminal helix of KcsA; helical linker, 1 turn; potassium channel KcsA; the N-terminal helix (residues 1-23) replaced by BRIL and linker; also called four residues or 1 turn (-AAAA-) linker construct; source: E. coli BL21(DE3)plysS, purified (Talon, SEC) in DDM
Described as above.

Test [6] deals with T7, BRIL-AARAAAA-KcsA (construct 6) (Escherichia coli (engineered cytochrome …, chimera)).
T7 construct: BRIL, an engineered variant of apocytochrome b562, in place of the N-terminal helix of KcsA; helical linker; potassium channel KcsA; the N-terminal helix (residues 1-23) replaced by BRIL and linker; also called seven residues (-AARAAAA-) linker construct; source: E. coli BL21(DE3)plysS, purified (Talon, SEC) in DDM
The test is described as above.

Test [7] concerns the target T8, BRIL-AAAAA-KcsA (construct 4) (Escherichia coli (engineered cytochrome …, chimera)).
T8 construct: BRIL, an engineered variant of apocytochrome b562, in place of the N-terminal helix of KcsA; helical linker; potassium channel KcsA; the N-terminal helix (residues 1-23) replaced by BRIL and linker; also called five residues (-AAAAA-) linker construct; source: E. coli BL21(DE3)plysS, purified (Talon, SEC) in DDM
The description is as above.

B1: sAB24 (Fab, V domains shown)
VH: EVQLVESGGGLVQPGGSLRLSCAASGFNFSSSSIHWVRQAPGKGLEWVAYISSSSGSTSYADSVKGRFTISADTSKNTAYLQMNSLRAEDTAVYYCARWGYWPGEPWWKAFDYWGQGTLVTVSS
VL: DIQMTQSPSSLSASVGDRVTITCRASQSVSSAVAWYQQKPGKAPKLLIYSASSLYSGVPSRFSGSRSGTDFTLTISSLQPEDFATYYCQQYLYYSLVTFGQGTKVEIK
notes: as the heavy chain of m3 (BAG2), with CDR-H1 32-37 FSSSSI in place of VVDFSL; as the light chain of m3 (BAG2); Parent of BAG2; also called wt sAB24; wt sAB; source: E. coli BL21(gold), purified
Molecule B1 gave a Kd with His10-BRIL of roughly 23 nM.

B2: BAG2 S36A (Fab, V domains shown)
VH: B1 VH with F29V, S30V, S31D, S32F, S33A, I34L
VL: B1 VL
notes: as the heavy chain of m3 (BAG2) with the stated change in CDR-H1; as the light chain of m3 (BAG2)
Regarding B2, in the test with His10-BRIL, the dissociation constant Kd was found to be 5.3 nM.

B3: sAB BAG2 (Fab, V domains shown)
VH: B1 VH with F29V, S30V, S31D, S32F, I34L
VL: B1 VL
notes: Fab heavy chain; CDR-H1 residues 32-37 are VVDFSL; Fab light chain; humanized Fab scaffold of phage library E; source: E. coli BL21(gold), purified
In the test with His10-BRIL, B3 yielded a Kd of roughly 0.3 nM. Also, the “stoichiometry N” value in test [1], in test [2], in test [3], in test [4], in test [5] and in test [6] was 4 in each case. The “stoichiometry N” value in test [7] was 4.

B4: BAG2 F35A (Fab, V domains shown)
VH: B1 VH with F29V, S30V, S31D, S32A, I34L
VL: B1 VL
notes: as for B2
For the molecule B4, the Kd with His10-BRIL was 7.6 nM. That is a single-digit nanomolar value.
